B1: TPR 5TU (parent)
chain: GGAUCUUCUCGAUCUAACAAAAAAGACAAAUCUGCCACAAAGCUUGAGAGCAUCUUCGGAUGCAGAGGCGGCAGCCUUCGGUGGCGCGAUAGCGCCAACGUUCUCAACUAUGACACGCAAAACGCGUGCUCCGUUGAAUGGAGUUUAUCAUG

This sample holds only a part of the variants without activity.

Variants of B1 are the subject of the data set. Kind of data set: polymerase ribozyme fitness, log enrichment relative to wild type (log ratio); higher = more active; in vitro selection for triplet polymerase activity. The method in brief: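 PCR was used to build mutant libraries for each subunit of a heterodimeric triplet polymerase ribozyme, which were then transcribed. A single in vitro selection round, in triplicate, used a frozen incubation at −7 °C and recovered extended constructs by gel excision, streptavidin beads and RT-PCR. Fitness is the logarithm of genotype enrichment relative to wild-type enrichment, averaged over replicates with inverse-variance weights. The logarithm is base 2, and after Illumina sequencing only genotypes with ≥10 input reads and ≥1 read per output were kept.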
For A23U G59U C93U, the “polymerase ribozyme fitness (log ratio)” value was at most -4.2.

Turning to A26C A30U C79U, the “polymerase ribozyme fitness (log ratio)” value is at most -4.2.

As for A17C C27A A52G A60U C69U C85A C95G C125A, the “polymerase ribozyme fitness (log ratio)” value was at most -4.2.

As for A24C C54A A60G A73U U77G, the “polymerase ribozyme fitness (log ratio)” value was at most -4.2.

C5A C57G C72U A73U G80C C93G A110U: the “polymerase ribozyme fitness (log ratio)” value was at most -4.2.

C57G G65A U134C: the “polymerase ribozyme fitness (log ratio)” value was -1.35.

As for C32A A40C G84A, the “polymerase ribozyme fitness (log ratio)” value is at most -4.2.

Turning to A37U C103A, the “polymerase ribozyme fitness (log ratio)” value was -3.85.

C108A G124U G140C: the “polymerase ribozyme fitness (log ratio)” value was at most -4.2.

For C8G A21C G94C C99A, the “polymerase ribozyme fitness (log ratio)” value was at most -4.2.

For A26U U148A, the “polymerase ribozyme fitness (log ratio)” value was -4.11.

Turning to C123A, the “polymerase ribozyme fitness (log ratio)” value is -0.404.

Take U31G C93G G133U U134C: the “polymerase ribozyme fitness (log ratio)” value was at most -4.2.

For the variant A49C C99G, the “polymerase ribozyme fitness (log ratio)” value is at most -4.2.

Take C14G A91U C93G C125A: the “polymerase ribozyme fitness (log ratio)” value was at most -4.2.

As for A19G G84C A115U A121G, the “polymerase ribozyme fitness (log ratio)” value was -3.97.

On to U13A C14A A60G C93U, for which the “polymerase ribozyme fitness (log ratio)” value was -2.5.

Turning to A41C G68C, the “polymerase ribozyme fitness (log ratio)” value was at most -4.2.

In the case of C35G C54U A60U C85A, the “polymerase ribozyme fitness (log ratio)” value was at most -4.2.

U9A A24G C54A C87G: the “polymerase ribozyme fitness (log ratio)” value was at most -4.2.

In the case of C76G G83U C103U, the “polymerase ribozyme fitness (log ratio)” value is at most -4.2.

For C27G G94C G136U, the “polymerase ribozyme fitness (log ratio)” value is at most -4.2.

On to C87A A106U, for which the “polymerase ribozyme fitness (log ratio)” value was -4.18.

Regarding A22C C27U U44A A47C U82C C95U A142C, the “polymerase ribozyme fitness (log ratio)” value is at most -4.2.

U31G U53A C95U U135G: the “polymerase ribozyme fitness (log ratio)” value was -3.6.

With G42U U56A A120U A142C, the “polymerase ribozyme fitness (log ratio)” value was at most -4.2.

For the variant U7G A47C A49U G86U C99U, the “polymerase ribozyme fitness (log ratio)” value was at most -4.2.

Regarding A28U A37C U55A A106C U134G G140A, the “polymerase ribozyme fitness (log ratio)” value was at most -4.2.

Consider U33A C76G G84C C85G C87G A89G G136C U145A, for which the “polymerase ribozyme fitness (log ratio)” value was at most -4.2.

For U9A C76U C85U C132U G133C, the “polymerase ribozyme fitness (log ratio)” value is at most -4.2.

Consider A97G U102A C129A, for which the “polymerase ribozyme fitness (log ratio)” value was -3.98.

Regarding U6G A29C A73U G86U, the “polymerase ribozyme fitness (log ratio)” value was at most -4.2.

Take C14A G59C U78G C96U: the “polymerase ribozyme fitness (log ratio)” value was at most -4.2.

On to A22G C36G G81U A89C A97C C116A, for which the “polymerase ribozyme fitness (log ratio)” value was at most -4.2.

As to A3C A12U U56A C93A A98U A107G C129U, the “polymerase ribozyme fitness (log ratio)” value was at most -4.2.

On to A3U C57U, for which the “polymerase ribozyme fitness (log ratio)” value turned out to be 0.223.

On to A19U C75U G81C C99G A119G G140U, for which the “polymerase ribozyme fitness (log ratio)” value was at most -4.2.

With C14G C57A G92A C96U A107C G124U, the “polymerase ribozyme fitness (log ratio)” value is at most -4.2.

On to A16U C51U C95U, for which the “polymerase ribozyme fitness (log ratio)” value is -2.98.

For C10U U13G C27A U33A C75G G88A A122U, the “polymerase ribozyme fitness (log ratio)” value is at most -4.2.

As for C108U A115G, the “polymerase ribozyme fitness (log ratio)” value was -3.94.

For U53A G81A C95U A120C U144G, the “polymerase ribozyme fitness (log ratio)” value was -1.05.

For the variant A19U A47C U55G C87U G92U U101C, the “polymerase ribozyme fitness (log ratio)” value is -2.81.

For U4A A29U C38U U44A U55A C57U C87G C95G, the “polymerase ribozyme fitness (log ratio)” value was at most -4.2.

For the variant U53A G59A G84U, the “polymerase ribozyme fitness (log ratio)” value was -1.32.

Take C5A A12C G42A G68C C79A G83A C108G: the “polymerase ribozyme fitness (log ratio)” value was at most -4.2.

Regarding C57G G86C, the “polymerase ribozyme fitness (log ratio)” value is -3.04.

For the variant A52U U53G U61A A91G U130G U144G, the “polymerase ribozyme fitness (log ratio)” value was at most -4.2.

Regarding C14G A20U C76A, the “polymerase ribozyme fitness (log ratio)” value is -3.92.

For C57U C63U G65U G88A A138U, the “polymerase ribozyme fitness (log ratio)” value was at most -4.2.

As for G11C G46A G58A G83A, the “polymerase ribozyme fitness (log ratio)” value was -3.26.

As to A41C C96A, the “polymerase ribozyme fitness (log ratio)” value is -0.56.

Turning to A22G C132U, the “polymerase ribozyme fitness (log ratio)” value is -0.512.

Take A41C C57U A89U G92C C116G C125A: the “polymerase ribozyme fitness (log ratio)” value is at most -4.2.

Regarding A12G U56G C85G, the “polymerase ribozyme fitness (log ratio)” value was -2.2.

Consider A16C U61A A89G C118A C149G, for which the “polymerase ribozyme fitness (log ratio)” value is at most -4.2.

Turning to A20G C93A C132G U134G U148G, the “polymerase ribozyme fitness (log ratio)” value was at most -4.2.

Turning to A16G A26U C85A C105G C114U G141C U151C, the “polymerase ribozyme fitness (log ratio)” value was at most -4.2.

For U61A C96G G117A, the “polymerase ribozyme fitness (log ratio)” value is -2.2.

With U53A U56G C57U A73G C87A G143A, the “polymerase ribozyme fitness (log ratio)” value is at most -4.2.

For the variant C18G A26U G86C A150U, the “polymerase ribozyme fitness (log ratio)” value was -3.07.

Turning to G50A G143C, the “polymerase ribozyme fitness (log ratio)” value is -3.85.

Take A19C G46A G62A G94A C95A: the “polymerase ribozyme fitness (log ratio)” value is at most -4.2.

For the variant C85A G88U C95G A97C, the “polymerase ribozyme fitness (log ratio)” value is at most -4.2.

Take A47C A49G G83A G140A: the “polymerase ribozyme fitness (log ratio)” value is at most -4.2.

Regarding G83U U102C, the “polymerase ribozyme fitness (log ratio)” value is -1.16.

In the case of A23G C51U G65C G88C U111A C131G C149G, the “polymerase ribozyme fitness (log ratio)” value is at most -4.2.

For A12G C116G, the “polymerase ribozyme fitness (log ratio)” value was 0.204.

As to G68C G83A, the “polymerase ribozyme fitness (log ratio)” value is at most -4.2.

Consider C54A U56A C93U A120G G126U, for which the “polymerase ribozyme fitness (log ratio)” value is -2.38.

As for A23U A40G C87A G141U, the “polymerase ribozyme fitness (log ratio)” value was at most -4.2.

Regarding A17U U31C G50A A64U C69A C99U, the “polymerase ribozyme fitness (log ratio)” value is at most -4.2.

Take G81A C96U C114G A115U: the “polymerase ribozyme fitness (log ratio)” value was -3.6.

As for G86U U104G C116A, the “polymerase ribozyme fitness (log ratio)” value was -2.52.

For the variant C87U C118U A147U, the “polymerase ribozyme fitness (log ratio)” value was -0.411.

A52G U82C G92U C93U G126A: the “polymerase ribozyme fitness (log ratio)” value is -1.76.

As for A20G A24U C85A C116A, the “polymerase ribozyme fitness (log ratio)” value is -0.238.

Take U61G C95G: the “polymerase ribozyme fitness (log ratio)” value was -2.32.

For A19C C35G U53A C57A G92A U101C, the “polymerase ribozyme fitness (log ratio)” value is -4.13.

Take C10U U45A C54A G71C G136U: the “polymerase ribozyme fitness (log ratio)” value was at most -4.2.

Consider G83A G141U, for which the “polymerase ribozyme fitness (log ratio)” value is -0.659.

Turning to A52C U53A G88C C95U U145C, the “polymerase ribozyme fitness (log ratio)” value was at most -4.2.

G50A C87U A97U: the “polymerase ribozyme fitness (log ratio)” value is -3.34.

For the variant A3C A21C C35A C85U C125U, the “polymerase ribozyme fitness (log ratio)” value is at most -4.2.

Values taken from the RNAGym collection of RNA variant scans (doi:10.1073/pnas.2313332121).
